The record followed here is patent US20230128688A1, “DIRECTED CONJUGATION TECHNOLOGIES” (KLEO PHARMACEUTICALS, INC., priority 2019, published 2023).

The experiment addresses T cell receptor (TCR)/CD3 on effector Jurkat T cells. Briefly: cell-based or functional assay.

The substance “III-1 (CD20×CD3; rituximab×SP34 scFv) (bispecific antibody)” returned an EC50 of T cell activation (NFAT-RE luciferase luminescence in Jurkat effector cells), effector only condition of over 10 nM and an EC50 of T cell activation (NFAT-RE luciferase luminescence in Jurkat effector cells), effector+target (Daudi) condition of 0.1 nM.
